Literature values in paper PMC8165686.

Biological target: Spike RBD (SARS-CoV-2) (UniProt P0DTC2)

For “ACE2 23-mer peptide 21-43 (from UniProt Q9BYF1)”, the Kd is listed as 47 nM.
